# How the values were obtained:
# [1] = target: FvTox1 in the pLexA vector (LexA fusion) (Fusarium virguliforme); test: two-hybrid; LexA two-hybrid system, yeast EGY48 [pSH18-34]; FvTox1 in pLexA, peptides in pB42AD; reporters LacZ and LEU2; quantitative β-galactosidase activity (Miller units), three biological replications
# [2] = target: GST-tagged FvTox1 (Fusarium virguliforme); test: pull-down; purified His-tagged peptides/fusion proteins mixed with GST-tagged FvTox1, pulled down with glutathione resin; western blot with anti-His antibody; relative percent pulled down, two independent experiments
Molecule,β-galactosidase activity [1] [Miller units],percent peptide pulled down by FvTox1 (relative binding strength) [2] [percent]
"soybean GmTRX3, a thioredoxin protein (natural protein)",9.64,–
"soybean GmGD1, a glycine cleavage protein (natural protein)",5.79,–
"GGGGSGGGGSGGGGSVENKTRYHDREVGGGGS [synthetic FvTox1-interacting peptide 2 (His-tagged, expressed in E. coli)]",–,5.5
"GGGGSGGGGSGGGGSHEGAWHNYARSVGGGGS [synthetic FvTox1-interacting peptide 3 (His-tagged, expressed in E. coli)]",–,2.7
"GGGGSGGGGSGGGGSSNGRVADGGGGS [synthetic FvTox1-interacting peptide 4 (His-tagged, expressed in E. coli)]",–,2.3
"synthetic FvTox1-interacting fusion peptide 5 (PEP1-PEP2; His-tagged, expressed in E. coli) (designed binder) GGGGSGGGGSGGGGSSYLPETIYEYRLGGGGSELGGGGSGGGGSGGGGSVENKTRYHDREVGGGGS",–,31.8
"synthetic FvTox1-interacting fusion peptide 6 (PEP3-PEP4; His-tagged, expressed in E. coli) (designed binder) GGGSGGGGSGGGGSHEGAWHNYARSVGGGGSELGGGGSGGGGSGGGGSSNGRVADGGGGS",–,8.8
"synthetic FvTox1-interacting fusion peptide 7 (PEP1-PEP2-PEP3; His-tagged, expressed in E. coli) (designed binder) GSGGGGSGGGGSGGGGSSYLPETIYEYRLGGGGSELGGGGSGGGGSGGGGSVENKTRYHDREVGGGGSLEGGGGSGGGGSGGGGSHEGAWHNYARSVGGGGS",–,38.5
"synthetic FvTox1-interacting fusion peptide 8 (PEP1-PEP2-PEP4; His-tagged, expressed in E. coli) (designed binder) GGGGSGGGGSGGGGSSYLPETIYEYRLGGGGSELGGGGSGGGGSGGGGSVENKTRYHDREVGGGGSLEGGGGSGGGGSGGGGSSNGRVADGGGGS",–,26
"synthetic FvTox1-interacting fusion peptide 9 (PEP1-PEP2-PEP3-PEP4; His-tagged, expressed in E. coli) (designed binder) GGGGSGGGGSGGGGSSYLPETIYEYRLGGGGSELGGGGSGGGGSGGGGSVENKTRYHDREVGGGGSLEGGGGSGGGGSGGGGSHEGAWHNYARSVGGGGSGTGGGGSGGGGSGGGGSSNGRVADGGGGS",–,47
GGGGSGGGGSGGGGSSYLPETIYEYRLGGGGS [synthetic FvTox1-interacting peptide 1 in pB42AD (no flanking cysteines)],6.59,–
GGGGSGGGGSGGGGSVENKTRYHDREVGGGGS [synthetic FvTox1-interacting peptide 2 in pB42AD (no flanking cysteines)],5.88,–
GGGGSGGGGSGGGGSHEGAWHNYARSVGGGGS [synthetic FvTox1-interacting peptide 3 in pB42AD (no flanking cysteines)],5.87,–
GGGGSGGGGSGGGGSSNGRVADGGGGS [synthetic FvTox1-interacting peptide 4 in pB42AD (no flanking cysteines)],6.45,–
synthetic FvTox1-interacting fusion peptide 5 in pB42AD (no flanking cysteines) (designed binder) GGGGSGGGGSGGGGSSYLPETIYEYRLGGGGSELGGGGSGGGGSGGGGSVENKTRYHDREVGGGGS,3.11,–
synthetic FvTox1-interacting fusion peptide 6 in pB42AD (no flanking cysteines) (designed binder) GGGSGGGGSGGGGSHEGAWHNYARSVGGGGSELGGGGSGGGGSGGGGSSNGRVADGGGGS,5.32,–
synthetic FvTox1-interacting fusion peptide 7 in pB42AD (no flanking cysteines) (designed binder) GSGGGGSGGGGSGGGGSSYLPETIYEYRLGGGGSELGGGGSGGGGSGGGGSVENKTRYHDREVGGGGSLEGGGGSGGGGSGGGGSHEGAWHNYARSVGGGGS,6.12,–
synthetic FvTox1-interacting fusion peptide 8 in pB42AD (no flanking cysteines) (designed binder) GGGGSGGGGSGGGGSSYLPETIYEYRLGGGGSELGGGGSGGGGSGGGGSVENKTRYHDREVGGGGSLEGGGGSGGGGSGGGGSSNGRVADGGGGS,3.35,–
synthetic FvTox1-interacting fusion peptide 9 in pB42AD (no flanking cysteines) (designed binder) GGGGSGGGGSGGGGSSYLPETIYEYRLGGGGSELGGGGSGGGGSGGGGSVENKTRYHDREVGGGGSLEGGGGSGGGGSGGGGSHEGAWHNYARSVGGGGSGTGGGGSGGGGSGGGGSSNGRVADGGGGS,5.64,–
"GGGGSGGGGSGGGGSSYLPETIYEYRLGGGGS [synthetic FvTox1-interacting peptide 1 (His-tagged, expressed in E. coli)]",–,3.9

# Source: article PMC4692527
